Laboratory results from paper PMC9482650, “Quantitative fragmentomics allow affinity mapping of interactomes” (Nature Communications, 2022).

T1: PTPN4, P29074
T1 sequence (P29074 512-599, limits assumed, looked up): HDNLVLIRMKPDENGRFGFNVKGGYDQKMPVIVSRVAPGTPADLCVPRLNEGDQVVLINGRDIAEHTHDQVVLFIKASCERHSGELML

T2: SIPA1L3, O60292
T2 sequence (O60292 961-1052, limits assumed, looked up): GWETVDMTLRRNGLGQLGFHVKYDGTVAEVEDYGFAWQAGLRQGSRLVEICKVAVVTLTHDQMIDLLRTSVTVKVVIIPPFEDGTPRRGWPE

T3: USH1C_3, Q9Y6N9
T3 sequence (Q9Y6N9 447-547, limits assumed, looked up): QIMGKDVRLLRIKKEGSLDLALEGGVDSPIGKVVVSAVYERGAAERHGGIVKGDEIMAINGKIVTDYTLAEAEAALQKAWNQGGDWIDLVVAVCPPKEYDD

T4: SHROOM2, Q13796
T4 sequence (Q13796 21-118, limits assumed, looked up): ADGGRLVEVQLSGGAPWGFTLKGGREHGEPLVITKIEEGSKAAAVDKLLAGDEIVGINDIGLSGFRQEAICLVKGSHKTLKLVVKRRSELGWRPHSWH

T5: PDZD8, Q8NEN9
T5 sequence (Q8NEN9 361-459, limits assumed, looked up): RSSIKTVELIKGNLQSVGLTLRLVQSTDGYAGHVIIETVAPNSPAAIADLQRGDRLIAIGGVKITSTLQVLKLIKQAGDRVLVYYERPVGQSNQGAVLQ

T6: MPP5, Q8N3R9
T6 sequence (Q8N3R9 251-346, limits assumed, looked up): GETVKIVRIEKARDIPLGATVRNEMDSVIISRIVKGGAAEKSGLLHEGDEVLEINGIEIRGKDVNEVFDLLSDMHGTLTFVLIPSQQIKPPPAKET

T7: MPDZ_7, O75970
T7 sequence (O75970 1146-1253, limits assumed, looked up): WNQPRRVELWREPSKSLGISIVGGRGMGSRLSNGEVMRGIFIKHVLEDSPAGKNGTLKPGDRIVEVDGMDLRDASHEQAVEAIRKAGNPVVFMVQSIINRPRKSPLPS

T8: PARD6B, Q9BYG5
T8 sequence (Q9BYG5 152-260, limits assumed, looked up): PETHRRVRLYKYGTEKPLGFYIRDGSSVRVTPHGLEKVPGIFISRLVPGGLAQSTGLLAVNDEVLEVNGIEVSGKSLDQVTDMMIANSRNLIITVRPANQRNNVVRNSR

T9: PDZD11, Q5EBL8
T9 sequence (Q5EBL8 42-139, limits assumed, looked up): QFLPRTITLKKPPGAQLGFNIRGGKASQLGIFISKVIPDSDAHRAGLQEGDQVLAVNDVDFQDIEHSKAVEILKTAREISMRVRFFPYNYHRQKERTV

T10: DVL1, O14640
T10 sequence (O14640 246-333, limits assumed, looked up): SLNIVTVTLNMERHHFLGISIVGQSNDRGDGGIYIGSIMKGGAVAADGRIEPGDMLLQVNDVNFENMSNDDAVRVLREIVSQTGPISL

T11: SHROOM4, Q9ULL8
T11 sequence (Q9ULL8 5-102, limits assumed, looked up): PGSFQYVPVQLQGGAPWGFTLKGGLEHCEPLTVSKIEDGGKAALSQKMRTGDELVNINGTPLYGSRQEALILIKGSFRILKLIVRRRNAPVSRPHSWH

T12: PTPN13_4, Q12923
T12 sequence (Q12923 1783-1878, limits assumed, looked up): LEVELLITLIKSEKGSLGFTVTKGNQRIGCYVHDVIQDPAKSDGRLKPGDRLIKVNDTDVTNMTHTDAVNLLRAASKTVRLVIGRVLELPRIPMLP


Legend:
Test in all cases: holdup assay
Set-up in all cases: key: below the threshold = too weak to quantify, mostly under pKd 3.1 to 4
Conditions in all cases: plain residues with an end cap or a label only (N-terminal biotin on a linker: ttds)
Inadl_7, Q8NI35 = biological target: Inadl_7, Q8NI35
Sequence of Inadl_7, Q8NI35 (Q8NI35 1219-1332): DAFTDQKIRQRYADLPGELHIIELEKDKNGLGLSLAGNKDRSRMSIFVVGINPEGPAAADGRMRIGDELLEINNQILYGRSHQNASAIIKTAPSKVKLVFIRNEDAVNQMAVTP

MAST3, O60307 = biological target: MAST3, O60307
Sequence of MAST3, O60307 (O60307 945-1048): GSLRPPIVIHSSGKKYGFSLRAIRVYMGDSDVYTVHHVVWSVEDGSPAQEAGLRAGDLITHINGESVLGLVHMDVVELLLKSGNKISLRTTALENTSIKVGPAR

MAGI1_3, Q96QZ7 = biological target: MAGI1_3, Q96QZ7
Sequence of MAGI1_3, Q96QZ7 (Q96QZ7 638-725): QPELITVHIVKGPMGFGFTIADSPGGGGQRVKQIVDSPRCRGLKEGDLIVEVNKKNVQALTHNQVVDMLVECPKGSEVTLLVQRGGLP

CNKSR3, Q6P9H4 = biological target: CNKSR3, Q6P9H4
Sequence of CNKSR3, Q6P9H4 (Q6P9H4 203-303): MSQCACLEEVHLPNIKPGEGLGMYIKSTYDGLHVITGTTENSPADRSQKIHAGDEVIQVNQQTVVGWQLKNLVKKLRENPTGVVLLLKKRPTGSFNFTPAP

PARD3B_2, Q8TEW8 = biological target: PARD3B_2, Q8TEW8
Sequence of PARD3B_2, Q8TEW8 (Q8TEW8 376-471): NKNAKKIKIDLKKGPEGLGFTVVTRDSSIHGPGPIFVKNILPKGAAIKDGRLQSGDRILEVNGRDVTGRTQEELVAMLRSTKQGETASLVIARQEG

DLG5_2, Q8TDM6 = biological target: DLG5_2, Q8TDM6
Sequence of DLG5_2, Q8TDM6 (Q8TDM6 714-800): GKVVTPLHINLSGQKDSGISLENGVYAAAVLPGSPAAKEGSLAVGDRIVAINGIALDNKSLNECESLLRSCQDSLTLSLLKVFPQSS

PTPN4, P29074 = biological target: T1, PTPN4, P29074
MAGI1_4, Q96QZ7 = biological target: MAGI1_4, Q96QZ7
Sequence of MAGI1_4, Q96QZ7 (Q96QZ7 other isoform, or with tags, fused parts or gaps): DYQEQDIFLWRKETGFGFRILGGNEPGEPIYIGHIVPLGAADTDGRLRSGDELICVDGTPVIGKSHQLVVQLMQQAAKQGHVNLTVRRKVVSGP

CARD14, Q9BXL6 = biological target: CARD14, Q9BXL6
Sequence of CARD14, Q9BXL6 (Q9BXL6 558-663): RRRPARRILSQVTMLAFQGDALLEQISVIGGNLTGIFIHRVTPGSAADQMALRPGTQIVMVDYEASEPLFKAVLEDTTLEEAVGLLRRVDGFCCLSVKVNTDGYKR

MAGI1_5, Q96QZ7 = biological target: MAGI1_5, Q96QZ7
Sequence of MAGI1_5, Q96QZ7 (Q96QZ7 986-1098): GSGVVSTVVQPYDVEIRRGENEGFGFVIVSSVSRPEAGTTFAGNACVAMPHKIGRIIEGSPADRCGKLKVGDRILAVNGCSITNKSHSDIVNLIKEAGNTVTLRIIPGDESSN

SIPA1L3, O60292 = biological target: T2, SIPA1L3, O60292
USH1C_3, Q9Y6N9 = biological target: T3, USH1C_3, Q9Y6N9
SHROOM2, Q13796 = biological target: T4, SHROOM2, Q13796
PDZD8, Q8NEN9 = biological target: T5, PDZD8, Q8NEN9
PDLIM4, P50479 = biological target: PDLIM4, P50479
Sequence of PDLIM4, P50479 (P50479 1-83): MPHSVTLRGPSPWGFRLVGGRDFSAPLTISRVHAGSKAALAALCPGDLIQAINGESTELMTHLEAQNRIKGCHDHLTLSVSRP

MPP5, Q8N3R9 = biological target: T6, MPP5, Q8N3R9
PARD3_1, Q8TEW0 = biological target: PARD3_1, Q8TEW0
Sequence of PARD3_1, Q8TEW0 (Q8TEW0 264-372): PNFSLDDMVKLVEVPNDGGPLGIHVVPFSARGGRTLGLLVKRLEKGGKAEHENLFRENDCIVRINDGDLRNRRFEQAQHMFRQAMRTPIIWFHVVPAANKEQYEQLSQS

MPDZ_7, O75970 = biological target: T7, MPDZ_7, O75970
MAGI3_4, Q5TCQ9 = biological target: MAGI3_4, Q5TCQ9
Sequence of MAGI3_4, Q5TCQ9 (Q5TCQ9 716-815): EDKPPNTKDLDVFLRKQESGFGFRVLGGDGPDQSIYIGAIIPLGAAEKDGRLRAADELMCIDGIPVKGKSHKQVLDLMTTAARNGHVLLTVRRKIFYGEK

PARD6B, Q9BYG5 = biological target: T8, PARD6B, Q9BYG5
PDZD11, Q5EBL8 = biological target: T9, PDZD11, Q5EBL8
DVL1, O14640 = biological target: T10, DVL1, O14640
NHERF4_3, Q86UT5 = biological target: NHERF4_3, Q86UT5
Sequence of NHERF4_3, Q86UT5 (Q86UT5 325-412): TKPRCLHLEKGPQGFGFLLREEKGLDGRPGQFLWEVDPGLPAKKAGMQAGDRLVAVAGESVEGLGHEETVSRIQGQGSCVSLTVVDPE

SHROOM4, Q9ULL8 = biological target: T11, SHROOM4, Q9ULL8
PTPN13_4, Q12923 = biological target: T12, PTPN13_4, Q12923

Row | Binder | pKd (Inadl_7, Q8NI35) | pKd (MAST3, O60307) | pKd (MAGI1_3, Q96QZ7) | pKd (CNKSR3, Q6P9H4) | pKd (PARD3B_2, Q8TEW8) | pKd (DLG5_2, Q8TDM6) | pKd (PTPN4, P29074) | pKd (CARD14, Q9BXL6) | pKd (MAGI1_5, Q96QZ7) | pKd (SHROOM2, Q13796) | pKd (PDZD8, Q8NEN9) | pKd (PDLIM4, P50479) | pKd (MPP5, Q8N3R9) | pKd (PARD3_1, Q8TEW0) | pKd (MPDZ_7, O75970) | pKd (MAGI3_4, Q5TCQ9) | pKd (PARD6B, Q9BYG5) | pKd (PDZD11, Q5EBL8) | pKd (DVL1, O14640) | pKd (NHERF4_3, Q86UT5) | also measured
1 | RRVRKLPSTTL [RPS6KA1, Q15418] | below the threshold | below the threshold | below the threshold | below the threshold | below the threshold | below the threshold | below the threshold | below the threshold | below the threshold | 3.61 | below the threshold | below the threshold | below the threshold | below the threshold | below the threshold | 3.59 | below the threshold | below the threshold | below the threshold | below the threshold | pKd (MAGI1_4, Q96QZ7): below the threshold; pKd (SIPA1L3, O60292): below the threshold; pKd (USH1C_3, Q9Y6N9): below the threshold; pKd (SHROOM4, Q9ULL8): below the threshold; pKd (PTPN13_4, Q12923): below the threshold
2 | TGDTLEKFVEGL [CBP, Q92793] | below the threshold | below the threshold | below the threshold | below the threshold | 3.9 | below the threshold | below the threshold | below the threshold | 4.17 | 3.83 | below the threshold | below the threshold | below the threshold | below the threshold | below the threshold | below the threshold | 4.58 | below the threshold | below the threshold | 3.86 | pKd (SHROOM4, Q9ULL8): 3.86
3 | CLDTSRETDL [KCNA5, P22460] | below the threshold | below the threshold | below the threshold | below the threshold | below the threshold | below the threshold | 4.07 | below the threshold | below the threshold | 4.22 | below the threshold | 4.26 | below the threshold | below the threshold | below the threshold | below the threshold | below the threshold | below the threshold | below the threshold | below the threshold | pKd (MAGI1_4, Q96QZ7): below the threshold; pKd (SIPA1L3, O60292): below the threshold; pKd (USH1C_3, Q9Y6N9): below the threshold; pKd (SHROOM4, Q9ULL8): below the threshold; pKd (PTPN13_4, Q12923): below the threshold
4 | QPGTPTRTAV [MAP2K2, P36507] | below the threshold | below the threshold | below the threshold | 4.05 | below the threshold | below the threshold | below the threshold | below the threshold | below the threshold | below the threshold | below the threshold | below the threshold | below the threshold | below the threshold | below the threshold | below the threshold | below the threshold | below the threshold | below the threshold | below the threshold | pKd (MAGI1_4, Q96QZ7): below the threshold; pKd (SIPA1L3, O60292): below the threshold; pKd (USH1C_3, Q9Y6N9): below the threshold; pKd (SHROOM4, Q9ULL8): below the threshold; pKd (PTPN13_4, Q12923): below the threshold

Further lines, with some results ahead:

Row | pKd (Inadl_7, Q8NI35) | pKd (MAST3, O60307) | pKd (MAGI1_3, Q96QZ7) | pKd (CNKSR3, Q6P9H4) | pKd (PARD3B_2, Q8TEW8) | pKd (DLG5_2, Q8TDM6) | pKd (PTPN4, P29074) | pKd (CARD14, Q9BXL6) | pKd (MAGI1_5, Q96QZ7) | pKd (SHROOM2, Q13796) | pKd (PDZD8, Q8NEN9) | pKd (PDLIM4, P50479) | pKd (MPP5, Q8N3R9) | pKd (PARD3_1, Q8TEW0) | pKd (MPDZ_7, O75970) | pKd (MAGI3_4, Q5TCQ9) | pKd (PARD6B, Q9BYG5) | pKd (PDZD11, Q5EBL8) | pKd (DVL1, O14640) | pKd (NHERF4_3, Q86UT5) | Binder | also measured
5 | below the threshold | below the threshold | below the threshold | below the threshold | below the threshold | below the threshold | 4.91 | below the threshold | 4.47 | 4.98 | below the threshold | below the threshold | below the threshold | below the threshold | 5.2 | below the threshold | below the threshold | below the threshold | below the threshold | 4.56 | NYWPGKETQL [SLCO1C1, Q9NYB5] | pKd (MAGI1_4, Q96QZ7): below the threshold; pKd (SIPA1L3, O60292): below the threshold; pKd (USH1C_3, Q9Y6N9): below the threshold; pKd (SHROOM4, Q9ULL8): below the threshold; pKd (PTPN13_4, Q12923): below the threshold
6 | 3.65 | 3.59 | 4.5 | below the threshold | below the threshold | below the threshold | below the threshold | below the threshold | 4.53 | below the threshold | below the threshold | below the threshold | below the threshold | below the threshold | 3.71 | below the threshold | 4.25 | below the threshold | below the threshold | below the threshold | DEDQHTQITKV [PTEN, P60484] | pKd (SHROOM4, Q9ULL8): below the threshold
